Square brackets hold non-standard residues; d marks the D form. Aib = CC(C)(N)C(=O)O
Experiments:
[1] = biological target: human glucagon-like peptide 1 receptor (GLP-1R) (human, UniProt P43220 24-463); test: cell-based or functional assay
[2] = biological target: T1, human GLP-2 receptor (hGLP2-R) (human, UniProt O95838 1-553); test: cell-based or functional assay
T1 sequence (looked up): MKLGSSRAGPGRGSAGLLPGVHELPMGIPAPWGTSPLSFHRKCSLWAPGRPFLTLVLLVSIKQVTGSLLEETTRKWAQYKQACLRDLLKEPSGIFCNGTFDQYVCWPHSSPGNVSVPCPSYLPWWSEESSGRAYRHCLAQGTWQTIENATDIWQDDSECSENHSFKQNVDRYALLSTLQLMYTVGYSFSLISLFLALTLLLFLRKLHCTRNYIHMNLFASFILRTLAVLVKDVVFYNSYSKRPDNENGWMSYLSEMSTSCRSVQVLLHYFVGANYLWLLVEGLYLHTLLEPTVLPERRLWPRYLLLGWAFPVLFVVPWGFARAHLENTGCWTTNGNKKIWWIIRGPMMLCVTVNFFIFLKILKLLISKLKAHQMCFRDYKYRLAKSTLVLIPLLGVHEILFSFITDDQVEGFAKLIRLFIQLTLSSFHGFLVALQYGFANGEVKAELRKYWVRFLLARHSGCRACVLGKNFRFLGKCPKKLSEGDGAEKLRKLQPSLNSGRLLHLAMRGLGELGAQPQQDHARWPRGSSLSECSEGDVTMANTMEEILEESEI

B1: Compound 19 (peptide)
peptide: H-H[Aib]EGTFTSELATILDEQAARDFIAWLIAQKITD-OH
SMILES: CC[C@H](C)[C@H](NC(=O)[C@H](CC(C)C)NC(=O)[C@H](Cc1c[nH]c2ccccc12)NC(=O)[C@H](C)NC(=O)[C@@H](NC(=O)[C@H](Cc1ccccc1)NC(=O)[C@H](CC(=O)O)NC(=O)[C@H](CCCNC(=N)N)NC(=O)[C@H](C)NC(=O)[C@H](C)NC(=O)[C@H](CCC(N)=O)NC(=O)[C@H](CCC(=O)O)NC(=O)[C@H](CC(=O)O)NC(=O)[C@H](CC(C)C)NC(=O)[C@@H](NC(=O)[C@@H](NC(=O)[C@H](C)NC(=O)[C@H](CC(C)C)NC(=O)[C@H](CCC(=O)O)NC(=O)[C@H](CO)NC(=O)[C@@H](NC(=O)[C@H](Cc1ccccc1)NC(=O)[C@@H](NC(=O)CNC(=O)[C@H](CCC(=O)O)NC(=O)C(C)(C)NC(=O)[C@@H](N)Cc1c[nH]cn1)[C@@H](C)O)[C@@H](C)O)[C@@H](C)O)[C@@H](C)CC)[C@@H](C)CC)C(=O)N[C@@H](C)C(=O)N[C@@H](CCC(N)=O)C(=O)N[C@@H](CCCCN)C(=O)N[C@H](C(=O)N[C@H](C(=O)N[C@@H](CC(=O)O)C(=O)O)[C@@H](C)O)[C@@H](C)CC
**Q.** Which results are given for B1?
**A.** EC50 GLP-1 (nM); cAMP AlphaScreen, HEK293 cells expressing human GLP-1R [1]: 0.005 nM; EC50 GLP-2 (nM); cAMP AlphaScreen, HEK293 cells expressing human GLP-2R [2]: 0.15 nM

B2: Compound 15 (peptide)
peptide: H-H[Aib]EGTFTSELATILDEQAARDFIAWLIQHKITD-OH
SMILES: CC[C@H](C)[C@H](NC(=O)[C@H](Cc1ccccc1)NC(=O)[C@H](CC(=O)O)NC(=O)[C@H](CCCNC(=N)N)NC(=O)[C@H](C)NC(=O)[C@H](C)NC(=O)[C@H](CCC(N)=O)NC(=O)[C@H](CCC(=O)O)NC(=O)[C@H](CC(=O)O)NC(=O)[C@H](CC(C)C)NC(=O)[C@@H](NC(=O)[C@@H](NC(=O)[C@H](C)NC(=O)[C@H](CC(C)C)NC(=O)[C@H](CCC(=O)O)NC(=O)[C@H](CO)NC(=O)[C@@H](NC(=O)[C@H](Cc1ccccc1)NC(=O)[C@@H](NC(=O)CNC(=O)[C@H](CCC(=O)O)NC(=O)C(C)(C)NC(=O)[C@@H](N)Cc1c[nH]cn1)[C@@H](C)O)[C@@H](C)O)[C@@H](C)O)[C@@H](C)CC)C(=O)N[C@@H](C)C(=O)N[C@@H](Cc1c[nH]c2ccccc12)C(=O)N[C@@H](CC(C)C)C(=O)N[C@H](C(=O)N[C@@H](CCC(N)=O)C(=O)N[C@@H](Cc1c[nH]cn1)C(=O)N[C@@H](CCCCN)C(=O)N[C@H](C(=O)N[C@H](C(=O)N[C@@H](CC(=O)O)C(=O)O)[C@@H](C)O)[C@@H](C)CC)[C@@H](C)CC
**Q.** How did the “EC50 GLP-1 (nM); cAMP AlphaScreen, HEK293 cells expressing human GLP-1R” value (“EC50 GLP-1 (nM); cAMP AlphaScreen” below) [1] turn out when B2 was run?
**A.** 0.005 nM

**Q.** What about the “EC50 GLP-2 (nM); cAMP AlphaScreen, HEK293 cells expressing human GLP-2R” value (“EC50 GLP-2 (nM); cAMP AlphaScreen” for short) [2] of the same binder?
**A.** 0.038 nM

B3: Compound 14 (peptide)
peptide: H-H[Aib]EGTFTSELATILDEQAARDFIAWLYAHKITD-OH
SMILES: CC[C@H](C)[C@H](NC(=O)[C@H](Cc1ccccc1)NC(=O)[C@H](CC(=O)O)NC(=O)[C@H](CCCNC(=N)N)NC(=O)[C@H](C)NC(=O)[C@H](C)NC(=O)[C@H](CCC(N)=O)NC(=O)[C@H](CCC(=O)O)NC(=O)[C@H](CC(=O)O)NC(=O)[C@H](CC(C)C)NC(=O)[C@@H](NC(=O)[C@@H](NC(=O)[C@H](C)NC(=O)[C@H](CC(C)C)NC(=O)[C@H](CCC(=O)O)NC(=O)[C@H](CO)NC(=O)[C@@H](NC(=O)[C@H](Cc1ccccc1)NC(=O)[C@@H](NC(=O)CNC(=O)[C@H](CCC(=O)O)NC(=O)C(C)(C)NC(=O)[C@@H](N)Cc1c[nH]cn1)[C@@H](C)O)[C@@H](C)O)[C@@H](C)O)[C@@H](C)CC)C(=O)N[C@@H](C)C(=O)N[C@@H](Cc1c[nH]c2ccccc12)C(=O)N[C@@H](CC(C)C)C(=O)N[C@@H](Cc1ccc(O)cc1)C(=O)N[C@@H](C)C(=O)N[C@@H](Cc1c[nH]cn1)C(=O)N[C@@H](CCCCN)C(=O)N[C@H](C(=O)N[C@H](C(=O)N[C@@H](CC(=O)O)C(=O)O)[C@@H](C)O)[C@@H](C)CC
**Q.** How did the “EC50 GLP-1 (nM); cAMP AlphaScreen” value [1] turn out when B3 was run?
**A.** 0.021 nM

**Q.** What about the “EC50 GLP-2 (nM); cAMP AlphaScreen” value [2] of the same binder?
**A.** 0.049 nM

B4: Compound 16 (peptide)
peptide: H-H[Aib]EGTFTSELATILDEQAARDFIAWLIKHKITD-OH
SMILES: CC[C@H](C)[C@H](NC(=O)[C@H](Cc1ccccc1)NC(=O)[C@H](CC(=O)O)NC(=O)[C@H](CCCNC(=N)N)NC(=O)[C@H](C)NC(=O)[C@H](C)NC(=O)[C@H](CCC(N)=O)NC(=O)[C@H](CCC(=O)O)NC(=O)[C@H](CC(=O)O)NC(=O)[C@H](CC(C)C)NC(=O)[C@@H](NC(=O)[C@@H](NC(=O)[C@H](C)NC(=O)[C@H](CC(C)C)NC(=O)[C@H](CCC(=O)O)NC(=O)[C@H](CO)NC(=O)[C@@H](NC(=O)[C@H](Cc1ccccc1)NC(=O)[C@@H](NC(=O)CNC(=O)[C@H](CCC(=O)O)NC(=O)C(C)(C)NC(=O)[C@@H](N)Cc1c[nH]cn1)[C@@H](C)O)[C@@H](C)O)[C@@H](C)O)[C@@H](C)CC)C(=O)N[C@@H](C)C(=O)N[C@@H](Cc1c[nH]c2ccccc12)C(=O)N[C@@H](CC(C)C)C(=O)N[C@H](C(=O)N[C@@H](CCCCN)C(=O)N[C@@H](Cc1c[nH]cn1)C(=O)N[C@@H](CCCCN)C(=O)N[C@H](C(=O)N[C@H](C(=O)N[C@@H](CC(=O)O)C(=O)O)[C@@H](C)O)[C@@H](C)CC)[C@@H](C)CC
**Q.** Which results are given for B4?
**A.** EC50 GLP-1 (nM); cAMP AlphaScreen, HEK293 cells expressing human GLP-1R [1]: 0.006 nM; EC50 GLP-2 (nM); cAMP AlphaScreen, HEK293 cells expressing human GLP-2R [2]: 0.026 nM

B5: Compound 13 (peptide)
peptide: H-H[Aib]EGTFTSELATILDEQAARDFIAWLQAHKITD-OH
SMILES: CC[C@H](C)[C@H](NC(=O)[C@H](Cc1ccccc1)NC(=O)[C@H](CC(=O)O)NC(=O)[C@H](CCCNC(=N)N)NC(=O)[C@H](C)NC(=O)[C@H](C)NC(=O)[C@H](CCC(N)=O)NC(=O)[C@H](CCC(=O)O)NC(=O)[C@H](CC(=O)O)NC(=O)[C@H](CC(C)C)NC(=O)[C@@H](NC(=O)[C@@H](NC(=O)[C@H](C)NC(=O)[C@H](CC(C)C)NC(=O)[C@H](CCC(=O)O)NC(=O)[C@H](CO)NC(=O)[C@@H](NC(=O)[C@H](Cc1ccccc1)NC(=O)[C@@H](NC(=O)CNC(=O)[C@H](CCC(=O)O)NC(=O)C(C)(C)NC(=O)[C@@H](N)Cc1c[nH]cn1)[C@@H](C)O)[C@@H](C)O)[C@@H](C)O)[C@@H](C)CC)C(=O)N[C@@H](C)C(=O)N[C@@H](Cc1c[nH]c2ccccc12)C(=O)N[C@@H](CC(C)C)C(=O)N[C@@H](CCC(N)=O)C(=O)N[C@@H](C)C(=O)N[C@@H](Cc1c[nH]cn1)C(=O)N[C@@H](CCCCN)C(=O)N[C@H](C(=O)N[C@H](C(=O)N[C@@H](CC(=O)O)C(=O)O)[C@@H](C)O)[C@@H](C)CC
**Q.** Which results are given for B5?
**A.** EC50 GLP-1 (nM); cAMP AlphaScreen, HEK293 cells expressing human GLP-1R [1]: 0.016 nM; EC50 GLP-2 (nM); cAMP AlphaScreen, HEK293 cells expressing human GLP-2R [2]: 0.083 nM

B6: Compound 17 (peptide)
peptide: H-H[Aib]EGTFTSELATILDEQAARDFIAWLIRHKITD-OH
SMILES: CC[C@H](C)[C@H](NC(=O)[C@H](Cc1ccccc1)NC(=O)[C@H](CC(=O)O)NC(=O)[C@H](CCCNC(=N)N)NC(=O)[C@H](C)NC(=O)[C@H](C)NC(=O)[C@H](CCC(N)=O)NC(=O)[C@H](CCC(=O)O)NC(=O)[C@H](CC(=O)O)NC(=O)[C@H](CC(C)C)NC(=O)[C@@H](NC(=O)[C@@H](NC(=O)[C@H](C)NC(=O)[C@H](CC(C)C)NC(=O)[C@H](CCC(=O)O)NC(=O)[C@H](CO)NC(=O)[C@@H](NC(=O)[C@H](Cc1ccccc1)NC(=O)[C@@H](NC(=O)CNC(=O)[C@H](CCC(=O)O)NC(=O)C(C)(C)NC(=O)[C@@H](N)Cc1c[nH]cn1)[C@@H](C)O)[C@@H](C)O)[C@@H](C)O)[C@@H](C)CC)C(=O)N[C@@H](C)C(=O)N[C@@H](Cc1c[nH]c2ccccc12)C(=O)N[C@@H](CC(C)C)C(=O)N[C@H](C(=O)N[C@@H](CCCNC(=N)N)C(=O)N[C@@H](Cc1c[nH]cn1)C(=O)N[C@@H](CCCCN)C(=O)N[C@H](C(=O)N[C@H](C(=O)N[C@@H](CC(=O)O)C(=O)O)[C@@H](C)O)[C@@H](C)CC)[C@@H](C)CC
**Q.** Which results are given for B6?
**A.** EC50 GLP-1 (nM); cAMP AlphaScreen, HEK293 cells expressing human GLP-1R [1]: 0.006 nM; EC50 GLP-2 (nM); cAMP AlphaScreen, HEK293 cells expressing human GLP-2R [2]: 0.066 nM

B7: Compound 18 (peptide)
peptide: H-H[Aib]EGTFTSELATILDEQAARDFIAWLISHKITD-OH
SMILES: CC[C@H](C)[C@H](NC(=O)[C@H](Cc1ccccc1)NC(=O)[C@H](CC(=O)O)NC(=O)[C@H](CCCNC(=N)N)NC(=O)[C@H](C)NC(=O)[C@H](C)NC(=O)[C@H](CCC(N)=O)NC(=O)[C@H](CCC(=O)O)NC(=O)[C@H](CC(=O)O)NC(=O)[C@H](CC(C)C)NC(=O)[C@@H](NC(=O)[C@@H](NC(=O)[C@H](C)NC(=O)[C@H](CC(C)C)NC(=O)[C@H](CCC(=O)O)NC(=O)[C@H](CO)NC(=O)[C@@H](NC(=O)[C@H](Cc1ccccc1)NC(=O)[C@@H](NC(=O)CNC(=O)[C@H](CCC(=O)O)NC(=O)C(C)(C)NC(=O)[C@@H](N)Cc1c[nH]cn1)[C@@H](C)O)[C@@H](C)O)[C@@H](C)O)[C@@H](C)CC)C(=O)N[C@@H](C)C(=O)N[C@@H](Cc1c[nH]c2ccccc12)C(=O)N[C@@H](CC(C)C)C(=O)N[C@H](C(=O)N[C@@H](CO)C(=O)N[C@@H](Cc1c[nH]cn1)C(=O)N[C@@H](CCCCN)C(=O)N[C@H](C(=O)N[C@H](C(=O)N[C@@H](CC(=O)O)C(=O)O)[C@@H](C)O)[C@@H](C)CC)[C@@H](C)CC
**Q.** For B7, which “EC50 GLP-1 (nM); cAMP AlphaScreen” value [1] is on record?
**A.** 0.006 nM

**Q.** And the “EC50 GLP-2 (nM); cAMP AlphaScreen” value [2]?
**A.** 0.054 nM

From US20190338009A1 (ZEALAND PHARMA A S, published 2019)
